What all share (experiment): ITC; ITC at 30 C in TBS with 1 mM TCEP (pH not stated); 8 uM (6-10) protein in cell, 40 uM (15-50) nucleic acid in syringe; one-site model
(Isothermal titration calorimetry measures the heat released or taken up as one component is titrated into another.)

The target of one data set is p7NC (HIV-1, UniProt P12493 378-432). As to conditions: protein: recombinant, tags: C-terminal His.
The target in a further data set is Pr50GagΔp6 (HIV-1, UniProt P12493 1-448). As to conditions: protein: recombinant, tags: C-terminal His.
Data set [1] concerns the target T1, Pr55Gag (HIV-1, UniProt P12493 1-500). As to conditions: protein: recombinant, tags: C-terminal His.
In another data set the target is p15NC-SP2-p6 (HIV-1, UniProt P12493 378-500). As to conditions: protein: recombinant, tags: C-terminal His.
The target in a further data set is Pr55Gag-TEV (HIV-1, UniProt P12493 1-500). As to conditions: protein: recombinant; tags: His removed by TEV protease; TEV site remnant at C-term.
Another data set addresses Pr50GagΔp6-TEV (HIV-1, UniProt P12493 1-448). As to conditions: protein: recombinant; tags: His removed by TEV protease; TEV site remnant at C-term.
The target of data set [2] is T1, Pr55Gag. As to conditions: protein: recombinant; tags: C-terminal His.

A word on the Kd: it is the equilibrium constant for the complex coming apart. For GGACUAGCGGAGGCUAGUCC (structured_RNA) [Psi SL3 RNA (20mer)], the Kd in the data set with p7NC (hairpin) was 48 ± 23 nM; in the data set with Pr50GagΔp6 (hairpin), 98 ± 3 nM; in the data set with Pr55Gag [1] (hairpin), 81 ± 25 nM; with p15NC-SP2-p6 (hairpin), 57 ± 11 nM.

As to CUUAGAAAUAGGGCAGCAUAGAACAAAAAUAGAGGAA (ssRNA) [HIVNL4.3RNA2671-2707], the binding result in the data set with Pr55Gag-TEV and with Pr50GagΔp6-TEV was “binds” each time.

For the molecule GAUGGGAUGGGAUGGGAUGG (ssRNA) [4x 5'-GAUGG-3' (GU-containing)], the binding result in the data set with p7NC, with Pr50GagΔp6, with Pr55Gag-TEV, in the data set with Pr50GagΔp6-TEV, with Pr55Gag [1] and with p15NC-SP2-p6 was “binds” throughout.

As for GAGAAGAGAAGAGAAGAGAA (ssRNA) [4x 5'-GAGAA-3' (A-containing)], the binding signal with Pr55Gag [2] is ~3 fold stronger Kd than GU-containing RNA (average over sets).

The values are drawn from article PMC5336307, “The thermodynamics of Pr55Gag-RNA interaction regulate the assembly of HIV”.
